Data reported in US20120214208.

Tests used:
[1] = test system: ligase-PprA (phage T4 / Deinococcus radiodurans fusion); conditions: transformation assay; no-ligase control 4
[2] = test system: p50-ligase (NF-kappaB p50 40-366 fused to N-terminus of T4 DNA ligase) (Homo sapiens / phage T4 fusion); conditions: transformation assay; no-ligase control 4
T4 DNA ligase (phage T4) = conditions: transformation assay after 16 C 60 min; no-ligase control 4

In the case of “pCA24N-ompC HindIII/SpeI vector (5032 bp) and insert (1311 bp)”, the activity [1] is reported as 53 colonies, the activity [2] is reported as 17 colonies and the activity (T4 DNA ligase (phage T4)) is reported as 47 colonies.
